Positions count from the first letter of the chain named.
T1: mouse CD300c (mouse)
T1 sequence (A2A7V7 whole entry, looked up): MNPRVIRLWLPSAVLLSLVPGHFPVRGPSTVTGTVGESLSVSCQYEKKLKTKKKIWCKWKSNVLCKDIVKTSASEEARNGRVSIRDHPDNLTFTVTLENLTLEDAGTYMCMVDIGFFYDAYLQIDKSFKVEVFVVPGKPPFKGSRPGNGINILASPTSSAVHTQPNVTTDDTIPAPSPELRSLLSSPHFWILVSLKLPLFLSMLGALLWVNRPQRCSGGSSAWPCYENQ

T2: CD300c antigen (11832-H08H, Sino Biological) (human, UniProt Q08708 21-183)
T2 construct: Bought antigen; also called CD300c protein; CD300 antigen-like family member C
T2 sequence (looked up): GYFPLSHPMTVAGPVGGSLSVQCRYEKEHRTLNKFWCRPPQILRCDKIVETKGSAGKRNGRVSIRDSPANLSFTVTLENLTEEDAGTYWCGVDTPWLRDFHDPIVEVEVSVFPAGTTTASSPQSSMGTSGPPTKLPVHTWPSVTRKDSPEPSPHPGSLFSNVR

B1: CL10 (antibody, V domains shown)
VH: EVQLLESGGGLVQPGGSLRLSCAASGFTFSSYGMHWVRQAPGKGLEWVSAISGSGGSTYYADSVKGRFTISRDNSKNTLYLQMNSLRAEDTAVYYCASGYGLMDVWGQGTLVTVSS
VL: QSVLTQPPSASGTPGQRVTISCTRSSGIIASNYVQWYQQLPGTAPKLLIYRNNQRPSGVPDRFSGSKSGTSASLAISGLRSEDEADYYCSSYAGNNNLVFGGGTKLTVL
notes: also called anti-CD300c monoclonal antibody CL10; CB301 antibody CL10
B2: CB301_H3L1_A10 (antibody, V domains shown)
VH: B1 VH with P14S, A97V, S98R, L102A
VL: B1 VL with I28S, A93T, G94T, N95S, N96S, N97T
B3: SL18 (antibody, V domains shown)
VH: RVQLLESGGGLVQPGGSLRLSCAASGFTFSDYHMHWVRQAPGKGLEWVSTISSSGGYTYYAESVKSRFTISRDNSKNTLYLQMNSLRAEDTAVYYCARSIRLPLDYWGQGTLVTVSS
VL: QSVLTQPPSASGTPGQRVTISCSGNNIGSKGVHWYQQLPGTAPKLLIYEDSKRPSGVRDRFSGSKSGTSASLAISGLRSEDEADYYCQSYDSTKGVVFGGGTKLTVL
notes: also called anti-CD300c monoclonal antibody SL18; CB301 antibody SL18
B4: CB301_H3L1_A12 (antibody, V domains shown)
VH: B1 VH with G33A, E89K
VL: QSVLTQPPSASGTPGQRVTISCTGTSSDVGNYNLVSWYQQLPGTAPKLLIYSNNQRPSGVPDRFSGSKSGTSASLAISGLRSEDEADYYCSSYTGSNALLFGGGTKLTVL
B5: CB301_H3L1_E6 (antibody, V domains shown)
VH: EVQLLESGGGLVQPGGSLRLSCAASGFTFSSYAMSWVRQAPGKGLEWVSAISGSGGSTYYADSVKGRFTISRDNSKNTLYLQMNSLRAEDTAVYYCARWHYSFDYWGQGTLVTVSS
VL: QSVLTQPPSASGTPGQRVTISCRGNNIGSKRVHWYQQLPGTAPKLLIYSYNHRPSGVPDRFSGSKSGTSASLAITGLRSEDEADYYCNTWDDSLEGPVFGGGTKLTVL
B6: CB301_H3L1_F4 (antibody, V domains shown)
VH: EVQLLESGGGLVQPGGSLRLSCAASGFTFSGYAMSWVRQAPGKGLEWVSAISGSGGSTYYADSVKGRFTISRDNSKNTLYLQMNSLRAEDTAVYYCARSPSGLFDYWGQGTLVTVSS
VL: QSVLTQPPSASGTPGQRVTISCGGNNIGSKRVHWYQQLPGTAPKLLIYNTSNKHSGVPDRFSGSKSGTSASLAISGLRSEDEADYYCSSYLQQHSLFGGGTKLTVL
B7: CB301_OPALTL_B5 (antibody, V domains shown)
VH: EVQLLESGGGLVQPGGSLRLSCAASGFTFSHYAMSWVRQAPGKGLEWVSAISGSGGSTYYADSVKGRFTISRDNSKNTLYLQMNSLRAEDTAVYYCARGWDSPTLTYFDSWGQGTLVTVSS
VL: QSVLTQPPSASGTPGQRVTISCSGTSSNIGNNDVSWYQQLPGTAPKLLIYQDTKRPSGVPDRFSGSKSGTSASLAISGLRSEDEADYYCAAWDDSLSGPVFGGGTKLTVL
B8: CB301_OPALTL_E6 (antibody, V domains shown)
VH: B1 VH with S57Y, S98R, G99W, Y100H, G101Y, L102S, M103F, V105Y
VL: QSVLTQPPSASGTPGQRVTISCSGSSSNIGNNYVSWYQQLPGTAPKLLIYRNNQRPSGVPDRFSGSKSGTSASLAISGLRSEDEADYYCQSYDNSNVLFGGGTKLTVL

Columns and labels:
mouse CD300c = molecular target: T1, mouse CD300c; test: cell-based or functional assay
[1] = molecular target: T2, CD300c antigen (11832-H08H, Sino …); test: binding ELISA, plate coated with CD300c antigen (8 µg/mL), HRP anti-Fc IgG detection
Protocol: In order to identify the antigen-binding ability of the anti-CD300c monoclonal antibodies produced in Example 1, binding ELISA was performed. Specifically, a CD300c antigen (11832-H08H, Sino Biological) or a CD300a antigen (12449-H08H, Sino Biological) in a coating buffer (0.1 M sodium carbonate, pH 9.0) was dispensed into an ELISA plate at a concentration of 8 μg/mL per well, followed by incubation at room temperature for 3 hours to allow the antigen to be bound to the plate. The unbound antigens were removed by washing three times using phosphate buffered saline-Tween 20 (PBST), and then 300 μL of PBST supplemented with 5% bovine serum albumin (BSA) was added to each well, followed by incubation at room temperature for 1 hour and then washing using PBST. Then, an anti-CD300c monoclonal antibody was diluted in quadruplicate and added thereto, followed by incubation for 1 hour at room temperature for antigen binding. After 1 hour, washing was performed three times using PBST to remove unbound anti-CD300c monoclonal antibody, and then 4 μg/mL of an antibody for detection (HRP conjugated anti-Fc IgG) was added, followed by incubation again at room temperature for 1 hour. Subsequently, the unbound antibody for detection was removed using PBST, and then TMB solution was added, followed by incubation for 10 minutes for development. Then, 2 N sulfuric acid solution was added to terminate the development reaction, and the absorbance was measured at 450 nm to identify the antibodies specifically binding to the CD300c antigen.

[2] = molecular target: T2, CD300c antigen (11832-H08H, Sino …); test: selection ELISA of Example 1.2, scFv periplasmic extract on coated CD300c antigen
Protocol: In order to select anti-CD300c monoclonal antibodies specifically binding, with high binding affinity, to a CD300c antigen, ELISA was performed using the library pool obtained by the same method as in Example 1.1. More specifically, each of a CD300c antigen and a CD300a antigen in a coating buffer (0.1 M sodium carbonate, pH 9.0) was dispensed into an ELISA plate at a concentration of 5 μg/mL per well, followed by incubation at room temperature for 3 hours, to allow the antigen to bind to the plate. The unbound antigens were removed by washing three times using phosphate buffered saline-Tween 20 (PBST), and then 350 μL of PBST supplemented with 2% bovine serum albumin (BSA) was added to each well, followed by incubation at room temperature for 1 hour and then washing again using PBST. Then, 25 μg of a periplasmic extract containing scFv obtained by the same method as in Example 1.1 was added thereto, followed by incubation for 1 hour at room temperature for antigen binding. After 1 hour, the unbound scFv was removed by washing three times using PBST, and then 4 μg/mL of an antibody for detection was added, followed by incubation again at room temperature for 1 hour. Subsequently, the unbound antibodies for detection were removed using PBST, and then HRP-conjugated anti-rabbit IgG was added, followed by incubation at room temperature for 1 hour. The unbound antibodies were removed again using PBST. Subsequently, 3,3′,5,5′-tetramethylbenzidine (TMB) solution was added, followed by incubation for 10 minutes for development. Then, 2 N sulfuric acid solution was added to terminate the development reaction, and the absorbance was measured at 450 nm to identify the antibodies specifically binding to the CD300c antigen.

| Binder | cancer cell proliferation inhibitory effect, CT26 mouse colon cancer cells, 10 ug/mL antibody, 5 days, CCK-8 (mouse CD300c) [%] | EC50 [1] [µg/mL] | binding result [2] |
| --- | --- | --- | --- |
| B1 | 15 | 0.039 |  |
| B2 |  |  | binds |
| B3 | 38 | 0.17 |  |
| B4 |  |  | binds |
| B5 |  |  | binds |
| B6 |  |  | binds |
| B7 |  |  | binds |
| B8 |  |  | binds |

— patent US20240254220A1 (CENTRICSBIO, published 2024)
